The target of the assay is SARS-CoV-2 spike (S) protein, expressed from a synthetic S gene (SARS-CoV-2, UniProt P0DTC2). The experiment in a line: cell-based or functional assay.

Some results are limits rather than exact numbers.

Regarding HVLGDISGINASVVQIQKEIDRLNEVAKNLHESLIYLQE [peptide #121 (mutated HR2 39-mer, 'Highest Affinity')], the “IC50, SARS-CoV-2 Spike-mediated cell-cell fusion” value was determined as 720 nM; the “IC50, SARS-CoV-2 pseudovirus infection in Calu-3 cells” value is 160 nM; the “IC50, SARS-CoV-2 pseudovirus infection in VeroE6” value is over 10000 nM; the “IC50, TMPRSS2-dependent plasma membrane pathway in VeroE6-TMPRSS2” value is under 1000 nM.

Source of the values: patent US11479582B2 (KING FAISAL UNIVERSITY, dated 2022).
